Experimental data reported in article PMC3769224.

How the values were obtained:
[1] = target: BRAG2^(Sec7-PH 390–811) (human)
[2] = target: BRAG2^(Sec7-PH 390–763) (human)

Substance | kcat/Km of GDP/GTP exchange in solution (tryptophan fluorescence kinetics, 37°C, 1 µM Arf) [1] [M⁻¹ s⁻¹] | kcat/Km of GDP/GTP exchange in solution (tryptophan fluorescence kinetics, 37°C, 1 µM Arf) [2] [M⁻¹ s⁻¹] | kcat/Km of GDP/GTP exchange in solution (tryptophan fluorescence kinetics, 37°C, 1 µM Arf) (BRAG2^Sec7 (human)) [M⁻¹ s⁻¹]
Δ13Arf6 (from UniProt P62330 14-175) (domain or fragment) | 50000 | 50000 | 10000
Δ17Arf1 (from UniProt P84077 18-181) (domain or fragment) | 250000 | 240000 | 20000
